Positions count from the first letter of the chain named. Like-named read-outs stand apart in the source and are kept apart here.
B1: Antibody 8 (antibody, V domains shown)
VH: QVQLQQSGPGLVKPSQTLSLTCVISGDTVSSNRATWNWMRQSPLRGLEWLGRTYYRSKWYNDYAVSVKSRVVINPDTSKNQVSLQLNTVTPDDSGVYFCARGGHITVFGVNIDAFDIWGLGTKVTVSS
VL: DIQMTQSPSSLSASVGDRVTISCRASQRLNSYLHWYQQTPGQAPKLLIYATSTLQSGVSPRFSGSGSGTDFTLTISSLQPEDVATYYCQLSRTFGHGTKVEIK
B2: Antibody 5 (antibody, V domains shown)
VH: QVQLQQSGPGLVKPSQTLSLTCAISGDRVSSNSAVWNWIRQSPSRGLEWLGRTYYRSKWYYDYAESVKSRIVIDPDTSKNQVSLQLNSVTPEDSAIYYCARGGHITVFGLNIDAYDIWGQGAMVTVSS
VL: DIQMTQSPSSLSASVGDRVTISCRAQSLSSYLHWYQQKPGQPPKLLIYAATTLQSGVPSRFSGSGSGTDFTLTISTFQAEDVATYYCQQSRTFGQGTKVEIK
B3: Antibody 6 (antibody, V domains shown)
VH: B2 VH with V107E
VL: B2 VL
B4: Antibody 3 (antibody, V domains shown)
VH: QVQLQESGPGLVKPSQTLSLTCAISGDSVSSNNAVWNWIRQSPSRGLEWLGRTYYRSKWYNDYAESVKSRITVNPDTSKNQFSLHLKSVTPEDTAVFYCVRSGHITVFGVNVDAFDMWGQGTMVTVSS
VL: DIQMTQSPSSLSASVGDRVTITCRTSQSLSSYLHWYQQKPGKAPKLLIYAASSLQSGVPSRFSGSGSGTDFTLTISSLQPEDFATYYCQQSRTFGQGTKVEIK
B5: Antibody 13 (antibody, V domains shown)
VH: B4 VH with E6Q, N32Y, K58G, V73I, H85Q, K87N, F97Y, V100A
VL: B4 VL with L33D, L54R, Q55L
B6: Antibody 14 (antibody, V domains shown)
VH: B4 VH with E6Q, V73I, H85Q, K87N, F97Y, V100A, M123T
VL: B4 VL with L33T, L54R, Q55L
B7: Antibody 15 (antibody, V domains shown)
VH: B4 VH with E6Q, V73I, H85Q, K87N, F97Y, V100A, M123T
VL: B4 VL with L33T, L54R, Q55G
B8: Antibody 10 (antibody, V domains shown)
VH: QVQLQQSGPGLVKPSQTLSLTCAISGDSVSSNSATWNWIRQSPSRGLEWLGRTYYRSKWYNDYADFLKRRITINPDTSNNEVSLRLTSVTPDDTALYYCARGGHITVFGVNIDAFDVWGQGTMVTVSS
VL: B4 VL with V19I, T22S, S30R, A51S, S53T, S77N, Q90L
B9: Antibody 11 (antibody, V domains shown)
VH: B4 VH with E6Q, N32Y, K58G, V73I, H85Q, K87N, F97Y, V100A
VL: B4 VL with L33T, L54R, Q55L
B10: Antibody 12 (antibody, V domains shown)
VH: B4 VH with E6Q, N32Y, K58G, V73I, H85Q, K87N, F97Y, V100A
VL: B4 VL with L33T, L54R, Q55G

Assays:
Assay in all cases: cell-based or functional assay
[1] = molecular target: T1, HA of A/Puerto Rico/8/34 (H1N1) (influenza A virus, UniProt P03452 18-565)
[2] = molecular target: HA of ca A/Wuhan/359/95 (H3N2) (influenza A virus)
[3] = molecular target: T1, HA of A/Puerto Rico/8/34 (H1N1); remark: listed apart in the source
[4] = molecular target: HA of ca A/Wuhan/359/95 (H3N2) (influenza A virus); remark: listed apart in the source
rHK68_I18R H3 HA = rHK68_I18R H3 HA (influenza A virus)
rHK68_D19N H3 HA = rHK68_D19N H3 HA (influenza A virus)
rHK68_D19Y H3 HA = rHK68_D19Y H3 HA (influenza A virus)
rHK68_Q42R H3 HA = rHK68_Q42R H3 HA (influenza A virus)
rHK68_I45N H3 HA = rHK68_I45N H3 HA (influenza A virus)
rHK68_I45T H3 HA = rHK68_I45T H3 HA (influenza A virus)
rHK68_K156Q H3 HA = rHK68_K156Q H3 HA (influenza A virus)
rHK68_A196T H3 HA = rHK68_A196T H3 HA (influenza A virus)

T1 sequence (P03452 18-565 limits assumed): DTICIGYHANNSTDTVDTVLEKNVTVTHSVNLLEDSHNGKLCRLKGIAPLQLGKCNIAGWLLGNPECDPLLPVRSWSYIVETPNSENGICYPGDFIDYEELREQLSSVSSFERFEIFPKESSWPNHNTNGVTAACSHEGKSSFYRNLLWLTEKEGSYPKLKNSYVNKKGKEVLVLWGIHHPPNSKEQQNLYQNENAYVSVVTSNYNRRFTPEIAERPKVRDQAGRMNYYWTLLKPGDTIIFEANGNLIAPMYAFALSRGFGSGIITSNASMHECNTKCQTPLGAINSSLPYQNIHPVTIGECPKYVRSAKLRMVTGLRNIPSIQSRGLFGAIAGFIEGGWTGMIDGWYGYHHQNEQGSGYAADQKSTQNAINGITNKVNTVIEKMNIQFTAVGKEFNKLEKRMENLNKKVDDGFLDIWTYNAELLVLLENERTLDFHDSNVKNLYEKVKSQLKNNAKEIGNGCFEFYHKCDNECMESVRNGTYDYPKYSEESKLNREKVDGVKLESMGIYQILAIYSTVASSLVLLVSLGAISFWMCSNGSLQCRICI

Row | Binder | Neutralization IC50, H1-PR34 [1] | Neutralization IC50, H3-WH95 [2] | Neutralization IC50, H1-PR34 [3] | Neutralization IC50, H1-PR34-OR [3] | Neutralization IC50, H3-WH95 [4] | Neutralization IC50, H3-WH95-OR [4] | also measured
1 | B1 | 3.02 µg/mL | > 50 µg/mL |  |  |  |  | 
2 | B2 | 1.13 µg/mL | 3.72 µg/mL |  |  |  |  | 
3 | B3 | 4.37 µg/mL | 10.5 µg/mL |  |  |  |  | 
4 | B4 | 1.07 µg/mL | 3.96 µg/mL | 2.17 µg/mL | 1.39 µg/mL | 5.63 µg/mL | 7.7 µg/mL | 
5 | B5 |  |  | 1.3 µg/mL | 0.88 µg/mL | 2.77 µg/mL | 3.01 µg/mL | 
6 | B6 |  |  | 1.25 µg/mL | 0.83 µg/mL | 2.77 µg/mL | 3.09 µg/mL | 
7 | B7 |  |  | 1.47 µg/mL | 0.9 µg/mL | 3.32 µg/mL | 3.48 µg/mL | 
8 | B8 | 2.15 µg/mL | 8.7 µg/mL |  |  |  |  | 
9 | B9 |  |  | 0.88 µg/mL | 0.73 µg/mL | 2.45 µg/mL | 2.26 µg/mL | 
10 | B10 |  |  | 1.07 µg/mL | 0.69 µg/mL | 2.09 µg/mL | 2.34 µg/mL | Avg. Neut., microneutralization (rHK68_I18R H3 HA): > 200 µg/mL; Avg. Neut., microneutralization (rHK68_D19N H3 HA): 3.04 µg/mL; Avg. Neut., microneutralization (rHK68_D19Y H3 HA): > 200 µg/mL; Avg. Neut., microneutralization (rHK68_Q42R H3 HA): 11.1 µg/mL; Avg. Neut., microneutralization (rHK68_I45N H3 HA): 1.94 µg/mL; Avg. Neut., microneutralization (rHK68_I45T H3 HA): 3.38 µg/mL; Avg. Neut., microneutralization (rHK68_K156Q H3 HA): 3.33 µg/mL; Avg. Neut., microneutralization (rHK68_A196T H3 HA): 4.06 µg/mL

From US20160257732A1 (published 2016)
